Article PMC4287557 (PLoS Pathogens, 2015)

Experiments:
16055 gp120 monomer = 16055 gp120 monomer (HIV-1 subtype C strain 16055); assay: BLI; conditions: both partners purified
JRFL gp120 monomer = JRFL gp120 monomer (HIV-1 subtype B strain JRFL, UniProt Q75760); assay: BLI; conditions: both partners purified

B1: VRC01 IgG (antibody, V domains shown)
VH: QVQLVQSGGQMKKPGESMRISCRASGYEFIDCTLNWIRLAPGKRPEWMGWLKPRGGAVNYARPLQGRVTMTRDVYSDTAFLELRSLTVDDTAVYFCTRGKNCDYNWDFEHWGRGTPVIVSS
VL: EIVLTQSPGTLSLSPGETAIISCRTSQYGSLAWYQQRPGQAPRLVIYSGSTRAAGIPDRFSGSRWGPDYNLTISNLESGDFGVYYCQQYEFFGQGTKVQVD
notes: also called bNAb VRC01
binding result (16055 gp120 monomer): binds | binding result (JRFL gp120 monomer): binds
